We go through four substances from article PMC5048593.

What all share (experiment): ITC
(In general: Isothermal titration calorimetry measures the heat released or taken up as one component is titrated into another.)

In assay [1] the target is phosphorylated p107^ΔPL982 (human) (UniProt P28749).
Assay [2] addresses p107^ΔPL containing six mutations to the Rb sequence (p107^6x) (human) (UniProt P28749).
Assay [3] deals with p107^ΔPL H797R (human) (UniProt P28749).
Assay [4] addresses p107^ΔPL V490K (human) (UniProt P28749).
Assay [5] has as its target p107^ΔPL E560H (human) (UniProt P28749).
Assay [6] has as its target Rb pocket domain lacking its large internal loop (Rb^ΔPL: residues 380–787 with 581–642 deleted) (human) (UniProt P06400).

The substance “E2F4 transactivation domain (E2F4^TD) (domain or fragment)” came in with a fold reduction in affinity against unphosphorylated p107^ΔPL982 in assay [1] of 3 fold. Regarding “E2F2 transactivation domain (E2F2^TD) (domain or fragment)”, the fold higher affinity than p107^ΔPL in assay [2] was found to be 24 fold. In addition, the fold increase in affinity over p107^ΔPL in assay [3], in assay [4] and in assay [5] was 3 fold throughout. E2F4^TD N395G (domain or fragment): the fold increase in affinity over wild-type E2F4^TD in assay [6] was 5 fold. In the case of “E2F1 transactivation domain (E2F1^TD) (domain or fragment)”, in assay [2], the fold higher affinity than p107^ΔPL was found to be 3 fold.
